Substitutions are numbered along the chain they refer to. Where “and” joins values, the source holds several entries; their conditions need not be identical. Equal entries are not always repeated.
B1: MIAB204 (Fc fusion)
chain: APTSSSTKKTQLQLEHLLLDLQMILNGINNYKNPKLTRMLTFKFYMPKKATELKHLQCLEEELKPLEEALNLAPSKNFHLRPRDLISDINVIVLELKGSETTFMCEYADETATIVEFINRWITFSQSIISTLTGGGGSGGGGSGGGGSGGGGSDKTHTCPPCPAPEAAGAPSVFLFPPKPKDTLMISRTPEVTCVVVDVSHEDPEVKFNWYVDGVEVHNAKTKPREEQYNSTYRVVSVLTVLHQDWLNGKEYKCKVSNKALPAPIEKTISKAKGQPREPQVYTLPPSREEMTKNQVSLTCLVKGFYPSDIAVEWESNGQPENNYKTTPPVLDSDGSFFLYSKLTVDKSRWQQGNVFSCSVMHEALHNHYTQKSLSLSPGGGGGSGGGGSGGGGSEVQLLESGGGLVQPGGSLRLSCAASGFTFSDFWMHWVRQAPGKGLEWISYISGDSGYTNYADSVKGRFTISRDNSKNTLYLQMNSLRAEDTAVYYCARDRPYYYYMDVWGKGTTVTVSSGGGGSGGGGSGGGGSGGGGSDIQMTQSPSSLSASVGDRVTITCRASQSVSRSLAWYQQKPGKAPKLLIYAASSLQSGVPSRFSGSGSGTDFTLTISSLQPEDFATYYCQQYKSYPVTFGQGTKVEIK
B2: PMAB1 (bispecific antibody, human IgG1, kappa)
heavy: EVQLLESGGGLVQPGGSLRLSCAASGFTFSNSDMSWVRQAPGKGLEWVSGITISGGSTYYADSVKGRFTISRDNSKNTLYLQMNSLRAEDTAVYYCARGRGGSGWLDYWGQGTLVTVSSASTKGPSVFPLAPSSKSTSGGTAALGCLVKDYFPEPVTVSWNSGALTSGVHTFPAVLQSSGLYSLSSVVTVPSSSLGTQTYICNVNHKPSNTKVDKKVEPKSCDKTHTCPPCPAPEAAGAPSVFLFPPKPKDTLMISRTPEVTCVVVDVSHEDPEVKFNWYVDGVEVHNAKTKPREEQYNSTYRVVSVLTVLHQDWLNGKEYKCKVSNKALPAPIEKTISKAKGQPREPQVYTLPPSREEMTKNQVSLTCLVKGFYPSDIAVEWESNGQPENNYKTTPPVLDSDGSFFLYSKLTVDKSRWQQGNVFSCSVMHEALHNHYTQKSLSLSPGGGGGSGGGGSGGGGSEVQLLESGGGLVQPGGSLRLSCAASGFTFSDFWMHWVRQAPGKGLEWISYISGDSGYTNYADSVKGRFTISRDNSKNTLYLQMNSLRAEDTAVYYCARDRPYYYYMDVWGKGTTVTVSSGGGGSGGGGSGGGGSGGGGSDIQMTQSPSSLSASVGDRVTITCRASQSVSRSLAWYQQKPGKAPKLLIYAASSLQSGVPSRFSGSGSGTDFTLTISSLQPEDFATYYCQQYKSYPVTFGQGTKVEIK
light: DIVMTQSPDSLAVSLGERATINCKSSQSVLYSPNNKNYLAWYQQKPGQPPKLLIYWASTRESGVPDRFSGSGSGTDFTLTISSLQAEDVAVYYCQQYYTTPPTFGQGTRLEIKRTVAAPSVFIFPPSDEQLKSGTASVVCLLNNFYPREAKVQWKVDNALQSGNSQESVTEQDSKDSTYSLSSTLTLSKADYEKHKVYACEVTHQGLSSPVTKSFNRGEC
notes: also called Parental molecule; parental PMAB1
B3: MIAB148 (antibody, human IgG1, kappa)
heavy: EVQLLESGGGLVQPGGSLRLSCAASGFTFSDFWMHWVRQAPGKGLEWISYISGDSGYTNYADSVKGRFTISRDNSKNTLYLQMNSLRAEDTAVYYCARDRPYYYYMDVWGKGTTVTVSSASTKGPSVFPLAPSSKSTSGGTAALGCLVKDYFPEPVTVSWNSGALTSGVHTFPAVLQSSGLYSLSSVVTVPSSSLGTQTYICNVNHKPSNTKVDKKVEPKSCDKTHTCPPCPAPEAAGAPSVFLFPPKPKDTLMISRTPEVTCVVVDVSHEDPEVKFNWYVDGVEVHNAKTKPREEQYNSTYRVVSVLTVLHQDWLNGKEYKCKVSNKALPAPIEKTISKAKGQPREPQVYTLPPSREEMTKNQVSLTCLVKGFYPSDIAVEWESNGQPENNYKTTPPVLDSDGSFFLYSKLTVDKSRWQQGNVFSCSVMHEALHNHYTQKSLSLSPGGGGGSAPTSSSTKKTQLQLEHLLLDLQMILNGINNYKNPKLTRMLTFKFYMPKKATELKHLQCLEEELKPLEEALNLAPSKNFHLRPRDLISDINVIVLELKGSETTFMCEYADETATIVEFINRWITFSQSIISTLT
light: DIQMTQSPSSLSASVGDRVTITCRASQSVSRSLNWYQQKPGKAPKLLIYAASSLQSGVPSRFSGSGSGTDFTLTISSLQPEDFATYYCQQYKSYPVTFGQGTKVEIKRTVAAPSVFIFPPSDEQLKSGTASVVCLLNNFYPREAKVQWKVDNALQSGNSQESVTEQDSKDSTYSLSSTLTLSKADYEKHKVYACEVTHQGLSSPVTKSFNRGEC
B4: MIAB155 (antibody, human IgG1, kappa)
heavy: B3 heavy
light: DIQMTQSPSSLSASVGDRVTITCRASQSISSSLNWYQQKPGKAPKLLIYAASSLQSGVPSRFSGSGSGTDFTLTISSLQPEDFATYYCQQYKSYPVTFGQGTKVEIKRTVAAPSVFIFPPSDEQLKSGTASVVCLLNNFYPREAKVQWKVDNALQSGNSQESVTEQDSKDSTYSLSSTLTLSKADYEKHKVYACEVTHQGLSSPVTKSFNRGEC
B5: MIAB139 (antibody)
heavy: B3 heavy
light: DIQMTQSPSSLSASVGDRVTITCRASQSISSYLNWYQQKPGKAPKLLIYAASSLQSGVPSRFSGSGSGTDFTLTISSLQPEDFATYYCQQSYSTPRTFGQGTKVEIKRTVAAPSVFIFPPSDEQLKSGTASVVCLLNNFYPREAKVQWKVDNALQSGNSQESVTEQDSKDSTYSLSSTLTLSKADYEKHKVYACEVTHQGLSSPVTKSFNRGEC
B6: MIAB170 (antibody, human IgG1, kappa)
heavy: B3 heavy with Y105W
light: DIQMTQSPSSLSASVGDRVTITCRASQSVSRSLAWYQQKPGKAPKLLIYAASSLQSGVPSRFSGSGSGTDFTLTISSLQPEDFATYYCQQYKSYPVTFGQGTKVEIKRTVAAPSVFIFPPSDEQLKSGTASVVCLLNNFYPREAKVQWKVDNALQSGNSQESVTEQDSKDSTYSLSSTLTLSKADYEKHKVYACEVTHQGLSSPVTKSFNRGEC
B7: MIAB198 (antibody, human IgG1, kappa)
heavy: B3 heavy with Y105I, T456A
light: B6 light
notes: also called MIAB198-CHO; MIAB198-HEK
B8: MIAB141 (antibody, human IgG1, kappa)
heavy: B3 heavy
light: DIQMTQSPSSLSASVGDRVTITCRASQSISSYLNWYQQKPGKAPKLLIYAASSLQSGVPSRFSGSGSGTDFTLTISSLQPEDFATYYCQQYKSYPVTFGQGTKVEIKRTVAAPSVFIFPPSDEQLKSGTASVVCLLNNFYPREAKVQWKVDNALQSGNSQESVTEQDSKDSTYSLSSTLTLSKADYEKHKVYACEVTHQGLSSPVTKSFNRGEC
notes: LCDR1 germlined
B9: MIAB151 (antibody, human IgG1, kappa)
heavy: B3 heavy
light: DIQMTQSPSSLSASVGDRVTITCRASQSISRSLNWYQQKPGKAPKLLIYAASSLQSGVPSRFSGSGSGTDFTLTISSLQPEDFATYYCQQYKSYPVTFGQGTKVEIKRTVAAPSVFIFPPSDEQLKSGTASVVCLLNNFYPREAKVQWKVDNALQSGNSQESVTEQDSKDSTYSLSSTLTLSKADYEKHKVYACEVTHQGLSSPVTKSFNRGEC
B10: MIAB129 (antibody, human IgG1, kappa)
heavy: B3 heavy with Y102G
light: B6 light
B11: MIAB158 (antibody, human IgG1, kappa)
heavy: B3 heavy
light: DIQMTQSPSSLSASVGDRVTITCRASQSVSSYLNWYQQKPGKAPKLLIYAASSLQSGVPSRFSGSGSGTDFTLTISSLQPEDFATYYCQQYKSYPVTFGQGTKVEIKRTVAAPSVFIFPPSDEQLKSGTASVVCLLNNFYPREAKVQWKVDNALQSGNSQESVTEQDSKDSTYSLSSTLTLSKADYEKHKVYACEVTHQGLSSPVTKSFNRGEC
B12: MIAB153 (antibody, human IgG1, kappa)
heavy: B3 heavy
light: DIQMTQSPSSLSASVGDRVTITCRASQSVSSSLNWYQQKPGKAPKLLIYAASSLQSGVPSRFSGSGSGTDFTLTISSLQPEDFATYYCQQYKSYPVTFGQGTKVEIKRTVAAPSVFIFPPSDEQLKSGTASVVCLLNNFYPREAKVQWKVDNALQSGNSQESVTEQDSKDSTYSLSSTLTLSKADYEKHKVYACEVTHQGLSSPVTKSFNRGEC

Assays:
[1] = target: T1, Insulin (UniProt P01308 25-54; P01308 90-110); test: ELISA on insulin-coated plate
T1 construct: Polyreactivity antigen; mature insulin has A and B chains; also called human insulin

[2] = target: T1, Insulin; test: ELISA on insulin-coated plate, 100 nM
Description: Non-specific DNA and Insulin binding is predictive of poor pharmacokinetics (PK). An immunosorbent plate was coated with dsDNA at a concentration of 1 μg/mL or Insulin at 5 μg/mL in PBS pH 7.4, 75 μl/well, and incubated overnight at 4° C. Wells were washed with PBS pH 7.4 containing 0.05% Tween-20 (wash buffer) three times, and then blocked with 200 μl/well 1% BSA in PBS pH 7.4 (block buffer) for two hours at room temperature. […] The diluted material was added to the DNA/insulin coated plate at 75 μl/well for 1 hour at room temperature. After three washes with wash buffer, a donkey anti-human FcY HRP conjugated polyclonal antibody, diluted to 1:5000 in assay buffer, was added to the plate at 75 μl/well for 1 hr at room temperature. After three washes with wash buffer and three washes with wash buffer (with no tween-20), the assay was developed with TMB, and stopped with 1N HCL. OD 450 nm was measured. The experiment included appropriate controls for non-specific binding of test articles to the plate/block in the absence of DNA or insulin.

[3] = target: T2, mouse MAdCAM (mouse, UniProt Q61826 22-365, limits assumed); test: BLI Octet, AHC capture
T2 construct: also called mouse MAdCAM-1
T2 sequence (looked up): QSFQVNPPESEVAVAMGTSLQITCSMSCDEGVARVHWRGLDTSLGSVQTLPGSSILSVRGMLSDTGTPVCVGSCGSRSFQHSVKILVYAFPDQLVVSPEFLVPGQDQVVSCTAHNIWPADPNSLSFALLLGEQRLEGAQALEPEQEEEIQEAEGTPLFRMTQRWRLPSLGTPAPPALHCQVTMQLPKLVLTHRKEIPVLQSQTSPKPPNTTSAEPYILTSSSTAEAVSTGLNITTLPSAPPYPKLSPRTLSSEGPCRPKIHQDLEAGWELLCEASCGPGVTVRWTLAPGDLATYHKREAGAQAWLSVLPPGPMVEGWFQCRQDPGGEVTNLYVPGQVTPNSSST

[4] = target: T3, Human MAdCAM (human, UniProt Q13477 19-317, limits assumed); test: BLI Octet, AHC capture
T3 construct: also called huMAdCAM; human MAdCAM-1
T3 sequence (looked up): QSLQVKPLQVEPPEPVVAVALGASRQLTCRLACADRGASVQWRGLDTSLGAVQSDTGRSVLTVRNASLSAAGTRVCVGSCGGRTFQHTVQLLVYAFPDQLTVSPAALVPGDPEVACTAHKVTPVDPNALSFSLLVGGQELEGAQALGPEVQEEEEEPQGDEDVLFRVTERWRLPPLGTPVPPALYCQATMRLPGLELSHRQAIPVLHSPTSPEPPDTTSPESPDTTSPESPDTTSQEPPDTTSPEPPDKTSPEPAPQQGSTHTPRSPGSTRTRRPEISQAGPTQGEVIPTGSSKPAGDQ

[5] = target: T2, mouse MAdCAM; test: BLI Octet
[6] = target: T3, Human MAdCAM; test: BLI Octet

Binder | binding result [1] | Insulin polyreactivity score [2] | Kd [4] | koff [4] | kon [4] | also measured
B1 | no binding (tested: 100 nM) | 8.43 | – | – | – | –
B2 | – | – | 135 nM and 115 nM and 116 nM and 62.8 nM | 0.0341 s⁻¹ and 0.0351 s⁻¹ and 0.0276 s⁻¹ and 0.0365 s⁻¹ | 252000 M⁻¹ s⁻¹ and 306000 M⁻¹ s⁻¹ and 238000 M⁻¹ s⁻¹ and 581000 M⁻¹ s⁻¹ | Kd [3]: 138 nM; koff [3]: 0.0204 s⁻¹; kon [3]: 148000 M⁻¹ s⁻¹; response [3]: 0.139; Kd [5]: 124 nM; koff [5]: 0.0463 s⁻¹; kon [5]: 374000 M⁻¹ s⁻¹; response [5]: 0.256; Kd [6]: 37.6 nM; koff [6]: 0.0398 s⁻¹; kon [6]: 1.06e+06 M⁻¹ s⁻¹; response [6]: 0.0839
B3 | no binding (tested: 100 nM) | 3.63 | 2690 nM | 0.314 s⁻¹ | 117000 M⁻¹ s⁻¹ | –
B4 | no binding (tested: 100 nM) | 1.99 | – | – | – | –
B5 | no binding (tested: 100 nM) | 2.08 | – | – | – | –
B6 | no binding (tested: 100 nM) | 4.73 | – | – | – | binding result [4]: no binding (tested: 1 µM)
B7 | no binding (tested: 100 nM) | – | – | – | – | –
B8 | no binding (tested: 100 nM) | – | – | – | – | binding result [4]: no binding (tested: 150 nM)
B9 | no binding (tested: 100 nM) | 3.63 | 2960 nM | 0.292 s⁻¹ | 98700 M⁻¹ s⁻¹ | –
B10 | no binding (tested: 100 nM) | 2.43 | – | – | – | –
B11 | no binding (tested: 100 nM) | 2.67 | – | – | – | –
B12 | no binding (tested: 100 nM) | 2.46 | 8360 nM | 0.543 s⁻¹ | 64800 M⁻¹ s⁻¹ | –

Reference: patent publication US20240132591A1 (PANDION OPERATIONS, published 2024)
